This note sets out measurements from patent US20130183315A1 (GLENMARK PHARMACEUTICALS S A, published 2013).

T1: recombinant human OX40-his protein (human, UniProt P43489 29-214)
T1 construct: Secretion driven by the native signal peptide of human TNFRSF4; also called recombinant histidine tagged human OX40 receptor extracellular domain; recombinant monovalent human OX40 receptor extracellular domain
T1 sequence: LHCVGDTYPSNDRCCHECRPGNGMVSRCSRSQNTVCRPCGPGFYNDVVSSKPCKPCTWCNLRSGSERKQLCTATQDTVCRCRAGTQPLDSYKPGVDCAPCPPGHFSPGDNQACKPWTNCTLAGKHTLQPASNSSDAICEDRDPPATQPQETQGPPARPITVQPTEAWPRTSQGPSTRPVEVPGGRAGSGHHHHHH

T2: human OX40 expressed on the surface of human activated lymphocytes (human, UniProt P43489 29-277)
T2 sequence: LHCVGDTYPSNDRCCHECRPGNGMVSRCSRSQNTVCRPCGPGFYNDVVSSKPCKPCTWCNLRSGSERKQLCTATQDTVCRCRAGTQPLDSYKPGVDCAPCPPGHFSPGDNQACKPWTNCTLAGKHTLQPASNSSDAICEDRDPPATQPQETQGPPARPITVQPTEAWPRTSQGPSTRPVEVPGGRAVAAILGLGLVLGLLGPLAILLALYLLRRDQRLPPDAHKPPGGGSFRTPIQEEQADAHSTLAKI

T3: chimeric RRHH OX40 protein (Fc fusion) (human-rat chimera; human)
T3 chain (part 1 of 2): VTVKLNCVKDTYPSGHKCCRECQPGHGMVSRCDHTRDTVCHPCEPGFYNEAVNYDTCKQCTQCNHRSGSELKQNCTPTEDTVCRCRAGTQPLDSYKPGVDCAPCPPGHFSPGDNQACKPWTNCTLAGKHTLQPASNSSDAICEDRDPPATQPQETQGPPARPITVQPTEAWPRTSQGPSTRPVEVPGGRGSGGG
T3 chain (part 2 of 2): SAHHHHHH

B1: VH4/VL4 (antibody, human IgG1, kappa, V domains shown)
VH: QVTLKESGPALVKPTQTLTLTCSFSGFSLSTSGMGVSWIRQPPGKALEWIAHIWWDDDKYYSTSLKTRLTISKDTSKNQVVLTMTNMDPVDTATYYCARIDWDGFAYWGQGTLVTVSS
VL: EIVLTQSPATLSLSPGERATLSCRASSSVSYYMAWYQQKPGQAPRLLIYATSNRATGIPARFSGSGSGTDYTLTISSLEPEDFAVYYCQQWSSNPWTFGQGTKVEIKR
notes: Humanized, IGHG1, kappa
B2: VH5/VL4 (antibody, human IgG1, kappa, V domains shown)
VH: B1 VH with S62N, S64A
VL: B1 VL
notes: Humanized, IGHG1, kappa
B3: VH5/VL6 (antibody, human IgG1, kappa)
heavy: not shown
light: QIVLTQSPATLSLSPGERATLSCRASSSVSYYMAWYQQKPGQAPRPWIYATSNRATGIPARFSGSGSGTDYTLTISSLEPEDFAVYYCQQWSSNPWTFGQGTKVEIKRTVAAPSVFIFPPSDEQLKSGTASVVCLLNNFYPREAKVQWKVDNALQSGNSQESVTEQDSKDSTYSLSSTLTLSKADYEKHKVYACEVTHQGLSSPVTKSFNRGEC
notes: Humanized, IGHG1, kappa
B4: VH7/VL11 (antibody, human IgG1, kappa, V domains shown)
VH: B1 VH with S37G, I50L, S62N, S64A
VL: EIVLTQSPATLSLSPGERATLSCRASSSVSYMHWYQQKPGQAPRLLIYATSNLASGIPARFSGSGSGTDYTLTISSLEPEDFAVYYCQQWSSNPWTFGQGTKVEIKR
notes: Humanized, IGHG1, kappa
B5: VH5/VL5 (antibody, human IgG1, kappa)
heavy: not shown
light: B3 light with Q1E
notes: Humanized, IGHG1, kappa
B6: VH7/VL8 (antibody, human IgG1, kappa, V domains shown)
VH: B1 VH with S37G, I50L, S62N, S64A
VL: B4 VL with L53R, S55T
notes: Humanized, IGHG1, kappa
B7: VH7/VL7 (antibody, human IgG1, kappa, V domains shown)
VH: B1 VH with S37G, I50L, S62N, S64A
VL: B4 VL with H33A, L53R, S55T
notes: Humanized, IGHG1, kappa
B8: VH5/VL9 (antibody, human IgG1, kappa, V domains shown)
VH: B1 VH with S62N, S64A
VL: B4 VL with L45P, L46W, L53R, S55T
notes: Humanized, IGHG1, kappa
B9: VH4/VL9 (antibody, human IgG1, kappa, V domains shown)
VH: B1 VH
VL: B4 VL with L45P, L46W, L53R, S55T
notes: Humanized, IGHG1, kappa
B10: VH6/VL9 antibody (antibody, human IgG1, kappa, V domains shown)
VH: B1 VH with S37G, S62N, S64A
VL: B4 VL with L45P, L46W, L53R, S55T
notes: Humanized, IGHG1, kappa; also called humanized anti-OX40 antibody VH6/VL9; VH6/VL9 IGHG1 format
B11: VH7/VL9 (antibody, human IgG1, kappa, V domains shown)
VH: B1 VH with S37G, I50L, S62N, S64A
VL: B4 VL with L45P, L46W, L53R, S55T
notes: Humanized, IGHG1, kappa; also called humanized variant VH7/VL9
B12: VH3/VL2 (antibody, human IgG1, kappa, V domains shown)
VH: B1 VH with S23T
VL: B1 VL with Y71F
notes: Humanized, IGHG1, kappa
B13: VH1/VL3 (antibody, human IgG1, kappa, V domains shown)
VH: B1 VH with S23T, H52R
VL: B1 VL with M33L
notes: Humanized, IGHG1, kappa
B14: VH2/VL1 (antibody, human IgG1, kappa, V domains shown)
VH: B1 VH with H52R
VL: B1 VL with M33L, Y71F
notes: Humanized, IGHG1, kappa
B15: VH2/VL2 (antibody, human IgG1, kappa, V domains shown)
VH: B1 VH with H52R
VL: B1 VL with Y71F
notes: Humanized, IGHG1, kappa
B16: VH1/VL1 antibody (antibody, human IgG1, kappa, V domains shown)
VH: B1 VH with S23T, H52R
VL: B1 VL with M33L, Y71F
notes: Humanized, IGHG1, kappa; also called first humanized antibody
B17: VH1/VL2 (antibody, human IgG1, kappa, V domains shown)
VH: B1 VH with S23T, H52R
VL: B1 VL with Y71F
notes: Humanized, IGHG1, kappa
B18: VH2/VL3 (antibody, human IgG1, kappa, V domains shown)
VH: B1 VH with H52R
VL: B1 VL with M33L
notes: Humanized, IGHG1, kappa
B19: VH3/VL1 (antibody, human IgG1, kappa, V domains shown)
VH: B1 VH with S23T
VL: B1 VL with M33L, Y71F
notes: Humanized, IGHG1, kappa
B20: VH3/VL3 (antibody, human IgG1, kappa, V domains shown)
VH: B1 VH with S23T
VL: B1 VL with M33L
notes: Humanized, IGHG1, kappa

Positions count from the first letter of the chain named.

In the first experiment the target is T1, recombinant human OX40-his protein. As to the kind of experiment: SPR (BIAcore): antibody captured on protein A chip, human OX40-his as analyte; analyte concentration not given. How it is done: (§1) Kinetic binding affinity constants (KD) were measured on protein-A captured antibody using recombinant histidine tagged human OX40 receptor extracellular domain as described in Example 1 as analyte. Measurements were conducted on a BIAcore 2000 (GE Healthcare—BIAcore, Uppsala, Sweden) at room temperature, and analyzed with the BiaEvaluation software (BIAcore; v4.1).
(§2) A CMS research grade sensor chip (GE Healthcare Europe GmbH, Glattbrugg, Switzerland; BR-1000-14) was activated by injecting 35 μl of a 1:1 N-hydroxysulfosuccinimide (NHS)/1-Ethyl-3-[3-dimethylaminopropyl]carbodiimide Hydrochloride (EDC) solution (v/v; 5 μl/min flow-rate; on flow paths 1 and 2). Protein-A (ref. P7837; Sigma-Aldrich Chemie GmbH, Buchs, Switzerland) was diluted to a final concentration of 50 μg/ml in acetate buffer pH 4.5 (GE, BR-1003-50; one pH unit below pI) and subsequently immobilized on the previously activated CMS sensor chip by injecting 35 μl on both flow path 1 and 2 (5 μl/min); this corresponded to approximately 1500 response units (RUs). The protein-A-CMS sensor chip was then deactivated by injecting 35 μl of ethanolamine solution (5 μl/min). Finally, two injections of 10 μl of glycine solution (GE, ref BR-1003-54; 10 mM; pH 1.5) were performed to release non-crosslinked protein-A molecules.
(§3) 10 μl of this diluted stock were subsequently injected on the flow-path 2 of the protein-A CMS chip (30 μl/min) to reach 200-250 RUs. Following this capture step, the recombinant histidine tagged human OX40 receptor extracellular domain was injected at different concentrations (50 nM to 0.4 μM) on the flow-path 1 and 2 (flow-path 1 being used as reference) at a 30 μl/min flow rate. After each binding event, surface was regenerated with glycine buffer pH 1.5 injected for 1 min (10 μl/min)
Background: In SPR one partner is held on a chip, and binding of the other changes the refractive index at the surface.
Regarding B1, the binding result is listed as “binds”.

B2: the binding result was “binds”.

B3: the binding result is given as “binds”.

Regarding B4, the binding result is recorded as “binds”.

For B5, the binding result is recorded as “binds”.

In the case of B6, the binding result is on record as “binds”.

As for B7, the binding result is recorded as “binds”.

Another experiment shares this target. As to the kind of experiment: SPR (BIAcore): antibody captured on protein A chip, human OX40-his as analyte; traces aligned at 0 s, falling phase only. On the procedure: as §1
as §2, with “molecules. […]” for “molecules.”
As for B8, the binding result is reported as “binds”.

For the molecule B9, the binding result was “binds”.

The next experiment deals with T2, human OX40 expressed on the surface of …. As to the kind of experiment: cell-based or functional assay.
With B10, the “inhibition of mixed lymphocyte reaction (3H thymidine incorporation), EC50” value was around 0.1 µg/mL.

A further experiment concerns the target T3, chimeric RRHH OX40 protein (Fc fusion). The experiment in a line: ELISA on coated OX40 Fc fusion (2 µg/mL), anti-human F(ab')2-HRP detection. How it is done:
(§4) Rat and human-rat OX40 proteins were formatted as Fc fusions proteins according to the method described in Example 1. For the ELISA, OX40 proteins were coated at 2 μg/mL, in PBS, overnight at 4° C. on high binding 96-well plates (Coastar). The plates were blocked with PBS 2% Bovine Serum Albumin (BSA) before incubation with the VH6/VL9 antibody or isotype control antibody. The plates were then washed and incubated with goat-anti human Ig F(ab′)2 fragment specific-HRP (Jackson ImmunoResearch Europe Ltd, Newmarket, UK). After washing, the plates were incubated with TMB substrate (Bio-Rad Laboratories AG, Reinach, Switzerland) to reveal antibody binding. The reaction was stopped by adding 2M H₂SO₄ and the optical density was read at 450 nm (OD 450 nm) on a Synergy HT2 spectrophotometer (Biotek, USA; distributor: WITTEC AG, Littau, Switzerland).
(§5) A binding ELISA was performed to test the reactivity of the VH6/VL9 antibody on human OX40 extracellular region (abbreviated HHHH with SEQ ID NO: 11), rat OX40 extracellular region (abbreviated RRRR with SEQ ID NO: 52), and on four human-rat chimeric proteins: RHRR (SEQ ID NO: 53), HRRR (SEQ ID NO: 54), HHRR (SEQ ID NO: 55), and RRHH (SEQ ID NO: 56).
In the case of B10, the binding result is recorded as “no binding (tested: not printed)”.

Another experiment addresses T4, rat OX40 extracellular region Fc fusion protein (rat; human, UniProt P15725 20-210).
T4 construct: also called RRRR; rat OX40 protein
Described as above. On the procedure:
as §4, §5
Consider B10, for which the binding result is recorded as “no binding (tested: not printed)”.

For a further experiment, the target named is T1, recombinant human OX40-his protein. As to the kind of experiment: SPR, antibody captured on protein A, OX40-his as analyte. On the procedure: as §1, §2, §3
Take B11: the dissociation constant Kd (as a rule, the concentration at which binding is half-saturated) was determined as 70 nM; the koff (as a rule, the rate constant with which the complex falls apart) is 0.00312 s⁻¹; the association rate constant (kon) (usually the second-order rate constant of association) was found to be 44500 M⁻¹ s⁻¹.

Regarding B10, the Kd worked out at 101 nM, the dissociation rate constant (koff) worked out at 0.00356 s⁻¹ and the kon was 35400 M⁻¹ s⁻¹.

The target is the same in the next experiment. As to the kind of experiment: SPR (BIAcore): antibody captured on protein A chip, human OX40-his as analyte. On the procedure:
as §1, §2, §3
As to B12, the binding result is recorded as “no binding (tested: not printed)”.

Regarding B13, the binding result is “no binding (tested: not printed)”.

In the case of B14, the binding result was “no binding (tested: not printed)”.

Regarding B15, the binding result was “no binding (tested: not printed)”.

Take B16: the binding result was “no binding (tested: not printed)”.

With B17, the binding result is listed as “no binding (tested: not printed)”.

In the case of B18, the binding result is listed as “no binding (tested: not printed)”.

Turning to B19, the binding result is reported as “no binding (tested: not printed)”.

As to B20, the binding result was “no binding (tested: not printed)”.
